Experimental data from paper PMC10799026, “Differences in regulation mechanisms of glutamine synthetases from methanogenic archaea unveiled by structural investigations” (Communications Biology, 2024).

Experiments:
[1] = biological target: glutamine synthetase (GSI-α) from Methanothermococcus thermolithotrophicus (Methanothermococcus thermolithotrophicus); test: crystal structure; sitting drop, 20 °C, anaerobic; apo and ligand-bound (2OG/Mg2+, 2OG/Mg2+/ATP, Mg2+/ATP) crystal forms
[2] = biological target: glutamine synthetase (GSI-α) from Methanothermococcus thermolithotrophicus (Methanothermococcus thermolithotrophicus); test: native gel or EMSA; high-resolution clear native PAGE (hrCN PAGE), 5-12% gradient gels, 40 mA for 1 h, 2 µg purified GS; size from a fit to standard proteins
[3] = biological target: glutamine synthetase (GSI-α) from Methanothermococcus thermolithotrophicus (Methanothermococcus thermolithotrophicus); test: SEC; Superose 6 Increase 10/300 GL, anaerobic, 20 °C, 25 mM Tris/HCl pH 7.6, 10% glycerol, 2 mM DTT, 0.4 ml/min; 76 µg MtGS, 67.5 µg MsGS; size from a fit to standard proteins
[4] = biological target: glutamine synthetase (GSI-α) from Methermicoccus shengliensis (Methermicoccus shengliensis); test: crystal structure; sitting drop, 20 °C, anaerobic; apo and ligand-bound (2OG/Mg2+, 2OG/Mg2+/ATP, Mg2+/ATP) crystal forms
[5] = biological target: glutamine synthetase (GSI-α) from Methermicoccus shengliensis (Methermicoccus shengliensis); test: native gel or EMSA; high-resolution clear native PAGE (hrCN PAGE), 5-12% gradient gels, 40 mA for 1 h, 2 µg purified GS; size from a fit to standard proteins
[6] = biological target: glutamine synthetase (GSI-α) from Methermicoccus shengliensis (Methermicoccus shengliensis); test: SEC; Superose 6 Increase 10/300 GL, anaerobic, 20 °C, 25 mM Tris/HCl pH 7.6, 10% glycerol, 2 mM DTT, 0.4 ml/min; 76 µg MtGS, 67.5 µg MsGS; size from a fit to standard proteins
MsGS = biological target: T1, MsGS (Methermicoccus shengliensis, UniProt A0A832VZP6); test: PK/LDH coupled assay, NADH oxidation at […] nm; assay type: biochemical; details: read-out: % inhibition at 20 mM
T1 construct: gene glnA; native, purified anaerobically from M. shengliensis cells, no tag
T1 sequence (A0A832VZP6 1-442): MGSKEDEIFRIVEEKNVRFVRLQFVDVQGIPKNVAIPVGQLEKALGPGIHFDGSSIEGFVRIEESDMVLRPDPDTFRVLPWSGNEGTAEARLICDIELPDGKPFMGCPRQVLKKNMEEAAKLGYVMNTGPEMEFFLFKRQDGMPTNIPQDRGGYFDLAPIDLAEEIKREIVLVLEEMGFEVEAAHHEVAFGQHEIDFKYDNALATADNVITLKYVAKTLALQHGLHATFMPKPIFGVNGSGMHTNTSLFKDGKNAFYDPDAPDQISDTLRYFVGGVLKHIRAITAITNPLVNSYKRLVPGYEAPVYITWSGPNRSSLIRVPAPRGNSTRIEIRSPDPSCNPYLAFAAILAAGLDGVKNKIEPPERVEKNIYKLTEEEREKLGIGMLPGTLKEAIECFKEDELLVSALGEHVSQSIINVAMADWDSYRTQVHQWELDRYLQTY

purified protein [7] = substrate: N; test: purified protein; details: 3 mM ATP, 25 mM MgCl2, pH 7, 45 °C, Hill fit
purified protein [8] = substrate: N[C@@H](CCC(=O)O)C(=O)O; test: purified protein; assay type: biochemical, Methermicoccus shengliensis; details: 20 mM NH4Cl, 3 mM ATP, 25 mM MgCl2, pH 7, 45 °C, standard mix contains 2 mM 2OG (no effect on MsGS), Hill fit
purified protein [9] = substrate: N[C@@H](CCC(=O)O)C(=O)O; test: purified protein; assay type: biochemical, Methanothermococcus thermolithotrophicus; details: in presence of 2 mM 2OG (required activator), 20 mM NH4Cl, 3 mM ATP, 25 mM MgCl2, pH 7, 45 °C, Hill fit
[10] = 80 mM glutamate, standard mix contains 2 mM 2OG (no effect on MsGS)
[11] = in presence of 2 mM 2OG (required activator), 50 mM glutamate

## glutamine synthetase (GSI-α) from Methanothermococcus thermolithotrophicus (enzyme)
[1]
  stoichiometry N: 12
[2]
  stoichiometry N: 12
[3]
  stoichiometry N: 12

## glutamine synthetase (GSI-α) from Methermicoccus shengliensis (enzyme)
[4]
  stoichiometry N: 12
[5]
  stoichiometry N: 12
[6]
  stoichiometry N: 12

## NC(=O)CC[C@H](N)C(=O)O [glutamine]
MsGS
  inhibition at 20000 µM: 97%

B1: MsGS (Methermicoccus shengliensis) (protein)
chain: T1 sequence (A0A832VZP6 1-442)
notes: native, purified anaerobically from M. shengliensis cells, no tag
Purified protein [7]; [10]
  Km: 0.07 ± 0.01 mM
  Vmax: 0.98 µmol/min/mg
Purified protein [8]
  Km: 32.57 ± 3.13 mM
  Vmax: 1.4 µmol/min/mg

B2: MtGS (Methanothermococcus thermolithotrophicus DSM 2095) (protein)
chain: MSTVEQVLEYVKSNNVKFMRFQFVDILGVPKNVAFPIKAGEKGIEELRDVLENGLYFDGSSIEGFVGINESDMMLKPDLSTFSVLPWRPSEKSVARVICDVYTTKGKPFEGDPRGCLKRVMEEFKKEFNGEYFVGPEPEFFLLKKDPHNPHKYIPADDGGYFDLEPMDEAPDIRRDIVFALENLGFHVEASHHEVAPGQHEVDFKFDDALKTADSVITFKTTIKTIAEQHGLKATFMPKPFFGMNGSGMHCHQSIWLNGEPSFYDENAPYQLSETCMNYVAGILKHAKAIVAITNPTVNSYKRLVPGYEAPVNIAWANSNRSAIIRVPAARGKGTRIEFRAPDPSCNPYLAFTVMLAAGLDGVKNKLDAPEPVERNIFAMSEAEKKELGIESVPANLKAALDELENNDVLKNALGKHIFESFLEIKNAEWDSFRTSVTDWETTAYLKI
notes: native, purified anaerobically from M. thermolithotrophicus cells, no tag
Purified protein [7]; [11]
  Km: 0.14 ± 0.01 mM
  Vmax: 3.27 µmol/min/mg
Purified protein [9]
  Km: 8.76 ± 0.87 mM
  Vmax: 3.42 µmol/min/mg
